Patent US20250011363A1 (published 2025)

biological target: acetylcholine receptor on acetylcholine receptor-overexpressing TE671 cells; assay: cell-based or functional assay

Inhibition of acetylcholine receptors (calcium imaging with Fura-2-AM, TE671 cells, nicotine 400 uM), 10 µM:
RSYSR [5mer-311]
RRGVRR [6mer-1-210]
RKRIRR [6mer-1-43]
RRQRR [5mer-73]
RWRYKR [6mer-2-136]
KWRQKR [6mer-2-233]
